Data from patent publication US20260125428A1, “SYNTHETIC TRIPLEX PEPTIDE NUCLEIC ACID-BASED INHIBITORS FOR CANCER THERAPY” (University of Connecticut, priority 2022, published 2026).

Assays:
[1] = system: U2932 cells; test: Cellular uptake in U2932 cells (confocal microscopy, flow cytometry); type: cell-based; details: 24 h
Method: (§1) FIGS. 3A-C show cellular uptake of indicated PNAs. (3A) A confocal image of HeLa cells showing cellular and nuclear uptake of γPNA7-NLS containing TAMRA at 2 μM dose and after 24 h of treatment. (3B) A confocal image of U2932 cells showing cellular and nuclear uptake of γPNA7-NLS containing tetramethylrhodamine (TAMRA) at 2 μM dose and after 24 h of treatment. (3C) A histogram representing flow cytometry results for cellular uptake of γPNA7-NLS in U2932 cells after incubation at different doses for 24 h. The scale bar represents 10 μm.
(§2) Cellular uptake: HeLa and U2932 cells were purchased from ATCC (USA), cultured in EMEM and RPMI media, respectively (Invitrogen, USA), supplemented with […] and 1% Penstrep at 37° C. and 5% CO2.
(§3) Confocal Microscopy: HeLa cells were seeded in 8 chamber slides at 50,000 cells/well. U2932 cells were seeded in 24 well plate at 100,000 cells per well. γPNA7-NLS containing TAMRA was added to the cells at 2 μM concentration. After 24 h, cells were washed with PBS to remove uninternalized PNA. The nucleus of live cells was stained using Hoechst dye and were visualized under confocal microscope (Nikon AIR, USA) while cells are maintained in CO2 independent media. […] Cells were then suspended in PBS and analyzed using LSR Fortessa X-20 cell analyzer (BD Biosciences, USA). The data was analyzed using Flowjo software.

[2] = Biodistribution in transgenic Ep-myc mice (IVIS, confocal); type: in vivo; details: 24 hours
Method: FIGS. 8A-D show organ distribution after intravenous and subcutaneous administration of indicated PNAs. (8A) The organ distribution of γPNA-NLS TAMRA after intravenous (IV) and subcutaneous (SC) administration in transgenic mice model of B-cell lymphoma (Ep-myc). γPNA-NLS TAMRA was administered at 5 mg/kg via IV and SC route and organ distribution was determined via IVIS imaging after 24 h. (8B) Confocal microscopy images of different lymph nodes (LNs) after IV and SC injection of γPNA-NLS TAMRA. Blue indicates DAPI and red indicated TAMRA. Scale bar, 30 μm. (8C) C-myc protein levels in brachial lymph nodes of γPNA5-NLS treated mice in comparison to the control (untreated mice). N=4 mice per group. (8D) C-myc protein levels in axillary lymph nodes of γPNA5-NLS treated mice in comparison to the control (untreated mice). N=4 mice per group. Transgenic or Ep-myc mice were treated with γPNA5-NLS at 60 mg/kg dose over 2 days and mice were euthanized on day 3 for analysis.
In vivo studies in transgenic mice model: Ep-myc mice model of Burkitt lymphoma (B6.Cg-Tg(IgHMyc)22Bri/J, #002728, Jackson laboratories) which overexpresses c-myc was also used to test the efficacy of the designed PNA-NLS.
Biodistribution study: γPNA7-NLS containing TAMRA was administered via retro-orbital and subcutaneous route at 5 mg/kg dose in mice with visibly enlarged lymph nodes (cervical, brachial, axillary, and inguinal). Mice were euthanized after 24 h and organs were collected followed by imaging via IVIS®. All major organs and enlarged lymph nodes were collected and frozen in OCT media. The lymph nodes and organs were sectioned at 10 μm thickness using cryostat. The sections were then fixed, permeabilized and nucleus was stained with DAPI. The localization of PNA in lymph nodes was studied via confocal microscopy. Images were taken using 60× oil lens on a AIR confocal microscope.

[3] = system: HeLa cells; test: Cellular uptake in HeLa cells (confocal microscopy); type: cell-based; details: 24 h, live cells
Method: as §1, §2, §3

[4] = Biodistribution in U2932 xenograft mice (IVIS, confocal); type: in vivo
Method: FIGS. 5A-D show results of in vivo administration of indicated PNAs. (5A) IVIS® images of xenograft mice bearing tumors at indicated time points after systemic administration of PNA-TAMRA and γPNA7-NLS at 5 mg/kg. (5B) IVIS® imaging of organs harvested from xenograft mice treated with PNA-TAMRA and γPNA7-NLS after 6 h of systemic administration. (5C) Quantification of fluorescence from the organs harvested from PNA-TAMRA and γPNA7-NLS treated xenograft mice. (5D) Confocal microscopy images of tumor and kidney tissue cryo-sections from PNA-TAMRA and γPNA7-NLS treated U2932 xenograft mice. Scale bar, 30 μm.
FIGS. 6A-C show effect of systemic administration of indicated PNAs. (6A) IVIS® images of xenograft mice bearing tumors at indicated time points after systemic administration of γPNA7-NLS and γPNA6 at 5 mg/kg. (6B) IVIS® imaging of organs harvested from control, γPNA7-NLS, and γPNA6 treated mice after 24 hours of systemic administration. (6C) Confocal imaging of tumor, liver, and kidney sections obtained from xenograft mice after 24 h of treatment with γPNA7-NLS and γPNA6. Scale bar is 30 μm.
In vivo studies in xenograft mice model: U2932 derived xenografts were generated by implanting 10 million cells subcutaneously on the lower right flank of the female NSG mice (NOD.Cg-Prkdc^scidIl2rg^tm1Wj1/SzJ, #005557, Jackson Laboratories, USA) of 5-6 weeks. The mice were maintained in the animal care facility at the University of Connecticut following the required Institutional Animal Care and Use Committee guidelines (IACUC). Mice developed palpable tumors after 3-4 weeks of implantation. Tumor dimensions including length (l), breadth (b), and height (h) were measured using a caliper and volume was calculated using the formula for ellipsoid (0.5236×lbh).
Biodistribution studies: Mice with 600-800 mm^3 tumor volume were used for the biodistribution studies. γPNA7-NLS, γPNA6 and regular PNA-TAMRA (23 mer with 3 arginine residues) was injected systemically (retro-orbital) at 5 mg/kg dose. Live imaging of animals was performed using in vivo imaging (IVIS®) spectrum CT and epifluorescence was recorded at excitation/emission wavelength of 549/578 nm at 0, 0.25, 1, 2, 4, 6, 8 and 24 h. Mice were euthanized after 6 h and 24 h. Organs were collected and imaged via IVIS® to determine organ localization of PNA. Further organs were frozen in optimum cutting temperature media (OCT) at −80° C. The tumor, liver, and kidney from treated and untreated mice were sectioned using a cryostat to obtain 10 μm tissue sections. The sections were washed in PBS followed by fixation in 10% neutral buffered formalin. After washing with PBS, sections were permeabilized using 0.2% Triton™-X. The nucleus was stained using mounting media with DAPI (Invitrogen, USA). Sections were allowed to harden overnight, and images were taken using 60× oil lens on a Nikon AIR confocal microscope.

[5] = organs harvested after 6 h, 5 mg/kg
[6] = xenograft mice, 5 mg/kg systemic, imaged up to 24 h

Substance: X3TCCCTCCCTCCGTTCTTTTTTCCCX7 (gamma PNA; NLS peptide; C-terminal TAMRA; gammaPNA to target; misc_feature 1 JJJTJJJT-linker- is covalently linked to the backbone, wherein J is pseudoisocytosine and the linker is 11-Amino-3,6,9-Trioxaundecanoic Acid (DCHA), represented as -OOO-; misc_feature 24 -K-linker-SEQ ID NO: 5-linker-label is covalently linked to the backbone, wherein the linker is 11-Amino-3,6,9-Trioxaundecanoic Acid (DCHA), represented as -OOO-, and the label i) [γPNA7-NLS]
- cellular and nuclear uptake (confocal) [1]: accumulation of γPNA7-NLS in both the nucleus and cytoplasm
- cellular uptake by flow cytometry ([1]; different doses): dose dependent increase in cellular uptake
- accumulation in lymph nodes after IV administration (confocal) ([2]; 5 mg/kg IV): minimal accumulation in the lymph nodes
- accumulation in lymph nodes after SC administration (confocal) ([2]; 5 mg/kg SC): accumulated significantly in multiple lymph nodes
- accumulation in lymph nodes, SC route in comparison to IV route (IVIS) ([2]; 5 mg/kg): significantly higher accumulation
- cellular uptake, cytoplasm (confocal) [3]: significant accumulation of γPNA7-NLS in the cytoplasm
- nuclear uptake (confocal, TAMRA overlap with Hoechst) [3]: accumulation of γPNA7-NLS within the nucleus
- accumulation in tumor (confocal microscopy of cryo-sections) ([4]; 6 h, 5 mg/kg): superior accumulation
- TAMRA intensity from harvested tumors (IVIS) ([4]; 6 h after systemic administration, 5 mg/kg): significant TAMRA intensity
- accumulation in tumors in comparison to γPNA6 (confocal imaging) ([4]; 24 h, 5 mg/kg): significantly higher accumulation in tumors
- fluorescence signal of harvested tumors in comparison to γPNA6 (IVIS) ([4]; 24 h after systemic administration, 5 mg/kg): higher fluorescence signal
- accumulation in tumor in comparison to liver, kidney, and intestine [4, 5]: higher in comparison to the other organs
- accumulation in tumors in comparison to PNA-TAMRA (quantified fluorescence) [4, 5]: more than 6 fold
- tumor accumulation until (live IVIS imaging) ([4]; xenograft mice, 5 mg/kg retro-orbital, imaged up to 6 h): 6 h
- retained within the tumors until (live IVIS imaging) [4, 6]: 24 h
- significant accumulation in tumors starting from (live IVIS imaging) [4, 6]: 0.25 h
